Data from paper PMC2797645, “Structure of the HCMV UL16-MICB Complex Elucidates Select Binding of a Viral Immunoevasin to Diverse NKG2D Ligands” (PLoS Pathogens, 2010).

T1: MICB*02 ectodomain (domains α1, α2 and α3) (human, UniProt Q29980 23-298)
T1 construct: also called complete MICB ectodomain; MICBα1α3
T1 sequence: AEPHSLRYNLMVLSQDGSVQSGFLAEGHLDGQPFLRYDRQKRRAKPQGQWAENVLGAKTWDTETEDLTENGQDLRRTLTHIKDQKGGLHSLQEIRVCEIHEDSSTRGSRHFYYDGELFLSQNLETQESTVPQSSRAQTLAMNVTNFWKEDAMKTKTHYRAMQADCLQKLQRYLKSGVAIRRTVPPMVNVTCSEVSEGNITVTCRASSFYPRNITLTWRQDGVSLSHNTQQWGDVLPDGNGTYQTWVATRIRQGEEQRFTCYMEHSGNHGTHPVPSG

T2: MICB*02 ectodomain (domains α1, α2 and α3) (human, UniProt Q29980 23-298)
T2 chain: T1 sequence

T3: MICB*02 α1α2-platform domain (MICBpf) (human)
T3 chain: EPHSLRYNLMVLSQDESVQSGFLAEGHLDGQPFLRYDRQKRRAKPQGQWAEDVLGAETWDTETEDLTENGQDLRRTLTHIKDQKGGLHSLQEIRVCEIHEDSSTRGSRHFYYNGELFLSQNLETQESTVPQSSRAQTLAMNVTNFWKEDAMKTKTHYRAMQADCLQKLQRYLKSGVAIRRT

T4: Fc-tagged ULBP1 (human, UniProt Q9BZM6 26-216)
T4 construct: ULBP1 (RAET1I), human NKG2D ligand; Captured by its Fc on a Protein A-G chip; also called RAET1I; source: bought: R&D Systems
T4 sequence: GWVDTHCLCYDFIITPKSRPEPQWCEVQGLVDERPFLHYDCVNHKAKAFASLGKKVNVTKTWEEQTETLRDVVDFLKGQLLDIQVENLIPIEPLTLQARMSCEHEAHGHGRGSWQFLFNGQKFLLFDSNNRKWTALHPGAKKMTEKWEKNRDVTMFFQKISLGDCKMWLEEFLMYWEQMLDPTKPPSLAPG

T5: Fc-tagged ULBP2 (human, UniProt Q9BZM5 26-217)
T5 construct: ULBP2 (RAET1H), human NKG2D ligand; Captured by its Fc on a Protein A-G chip; also called RAET1H; source: bought: R&D Systems
T5 sequence: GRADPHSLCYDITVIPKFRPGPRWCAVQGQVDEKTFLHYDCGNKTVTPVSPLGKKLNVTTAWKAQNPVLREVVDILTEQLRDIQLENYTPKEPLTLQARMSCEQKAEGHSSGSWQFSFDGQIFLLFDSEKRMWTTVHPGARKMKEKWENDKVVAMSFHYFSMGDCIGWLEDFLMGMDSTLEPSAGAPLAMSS

B1: UL16 ectodomain, monomeric, untagged (domain or fragment)
chain: VDLGSKSSNSTCRLNVTELASIHPGETWTLHGMCISICYYENVTEDEIIGVAFTWQHNESVVDLWLYQNDTVIRNFSDITTNILQDGLKMRTVPVTKLYTSRMVTNLTVGRYDCLRCENGTTKIIERLYVRLGSLYPRPPGSGLAKHPSVSADEELSA
modifications: N-linked glycans; N-acetylglucosamine seen at asparagines 35, 41, 68, 84, 95, 101 and 132 in the crystal (after EndoH)
notes: UL16 of human cytomegalovirus, ectodomain residues 27-184; the cDNA construct also held the N-terminal signal peptide (residues 1-26), then a thrombin cleavage site and human IgG1-Fc; Residues of the thrombin site may remain at the C-terminus after cleavage; For the crystal the complex was partly deglycosylated with EndoH after complex formation; for SPR the glycosylated protein was used; also …
B2: MICB*02 α1α2-platform domain (MICBpf) (domain or fragment)
chain: T3 chain

Assays:
[1] = molecular target: T1, MICB*02 ectodomain (domains α1, α2 and …); experiment: SPR; MICBpf or MICB α1-α3 covalently immobilised on a CM5 chip by amine coupling; untagged monomeric UL16 as analyte, 50 µl/min; kinetic fit (1:1 binding with mass transfer) and equilibrium fit (1:1 Langmuir isotherm); chip not regenerated; settings: both partners purified
[2] = molecular target: T2, MICB*02 ectodomain (domains α1, α2 and …); experiment: SPR; kinetic fit
[3] = molecular target: T3, MICB*02 α1α2-platform domain (MICBpf); experiment: SPR; kinetic fit
Fc-tagged ULBP1 = molecular target: T4, Fc-tagged ULBP1; experiment: SPR; Fc-tagged ULBP ligands captured on a Protein A-G CM5 chip, diluted in HBS-EP pH 7.4 at 25°C; untagged monomeric UL16 as analyte, 50 µl/min; regeneration with 10 mM glycine pH 1.7; settings: both partners purified
Fc-tagged ULBP2 = molecular target: T5, Fc-tagged ULBP2; experiment: as above; settings: both partners purified
[4] = molecular target: B1; experiment: SPR; MICBpf or MICB α1-α3 covalently immobilised on a CM5 chip by amine coupling; untagged monomeric UL16 as analyte, 50 µl/min; kinetic fit (1:1 binding with mass transfer) and equilibrium fit (1:1 Langmuir isotherm); chip not regenerated; settings: both partners purified

Binder	Kd [1]	koff [2]	koff [3]	Kd (Fc-tagged ULBP1)	binding result (Fc-tagged ULBP2)	Kd [4]
B1	67 nM	0.045 s⁻¹	0.054 s⁻¹	12 nM	binds	–
B2	–	–	–	–	–	66 nM
